From US11708423B2, “Chimeric engulfment receptor molecules and methods of use” (CERO THERAPEUTICS, INC., priority 2017, dated 2023)

How the values were obtained:
Assay type in all cases: cell-based
ALK+A549 cells = assay: Phagocytosis of ALK inhibitor treated A549 ALK+ cells by CER T cells (fluorescent microscopy); settings: for phagocytosis of A549 cells: CD4 T cells
Source text: An ELM4-ALK translocation was introduced into A549 cells. […] CD4 T cells are modified to express CER104 or CER117 and labeled with CELLTRACE Violet. CER117 has a polypeptide sequence set forth in SEQ ID NO:144 and comprises a Tim4 binding domain, a Tim4 transmembrane domain, and an engulfment signaling domain comprising a primary engulfment signaling domain comprising a TLR8 signaling domain and a secondary engulfment signaling domain comprising a TRAF6 signaling domain. The ALK+A549 cells were then co-cultured with CER104- or CER117-expressing CD4+ T cells or Mock-transduced (vector only) T cells for 12 hours and images were obtained by fluorescent microscopy at 40× magnification (FIGS. 62A-E). White arrows indicate exemplary phagocytic events (pH rodo red cell targets within CELLTRACE Violet labeled CD4+ T cells).
CER123- and CER126-transduced CD4+ and CD8+ T cells were labeled with CELLTRACE Violet and co-cultured with the A549 ALK-positive cells. Co-cultured cells were imaged by fluorescent microscopy at 63× magnification after 12 hours (FIGS. 63A-F). White arrows indicate exemplary phagocytic events (pHrodo red targets within CELLTRACE Violet-labeled CD4 T cells).
Phagocytosis of Alectinib-treated ALK+A549 cells by CER-expressing T cells was also quantified. […] Bar graph in FIG. 64A represents quantification of percentage phagocytosis calculated as ((number of phagocytic target events)/(total number of effector cells))*100. Events were calculated from fluorescent 3×3 stitched images at 40×resolution after 12 hours of co-culture. Bar graph in FIG. 64B represents quantification of adjusted phagocytic index calculated as (median area ratio of target events in effector cells*phagocytosis). Events calculated from fluorescent 3×3 stitched images at 40×resolution after 12 hours of co-culture.
CER21−, CER27−, CER30−, CER108−, CER110−, CER112−, CER120−, CER123−, CER124−, CER126−, CER127−, or CER104-transduced CD4+ T cells were co-cultured with Alectinib-treated A549 cells at a 1:1 ratio for 12 hours. Phagocytic events were calculated from 3×3 stitched fluorescent microscopy images at 40X resolution. […] Images were obtained after 12 hours of co-culture. Yellow triangles indicate exemplary phagocytic events (pHrodo red targets within CELLTRACE violet labeled CD4+ T cells).
A time course study of phagocytic uptake of tumor cells by CER-transduced T cells was performed. CD4+ T cells were transduced with a lentiviral vector comprising CER122 nucleic acid. Mock-transduced (vector only) CD4+ T cells were used as control. CER122-transduced T cells were labeled with CELLTRACE violet and co-cultured with pHrodo red labeled A549 ALK+ lung adenocarcinoma cells. Fluorescent microscopy images were obtained at 4, 8, and 16 hours co-culture (FIG. 72C), and % phagocytosis (FIG. 72A) and phagocytic index (FIG. 72B) were calculated.

[1] = system: H1975 lung adenocarcinoma cells; assay: MTT viability of H1975 cells co-cultured with CER T cells and Osimeritinib; settings: Osimeritinib 250, 500, 1000 nM; CD4+ T cells, E:T 1:1, 2:1, 5:1; 48 hours
Source text: H1975 lung adenocarcinoma cells harboring an EGFR mutation were co-cultured with CER123- or CER126-modified or Mock-transduced (vector only) CD4+ T cells with increasing concentrations of Osimeritinib. CER123 has a polypeptide sequence as set forth in SEQ ID NO:150 and comprises a Tim4 binding domain, Tim4 transmembrane domain, and an engulfment signaling domain comprising a primary engulfment signaling domain comprising a TLR2 signaling domain and a secondary engulfment signaling domain comprising a TRAF6 signaling domain. CER126 has a polypeptide sequence as set forth in SEQ ID NO:174 and comprises a Tim4 binding domain, Tim4 transmembrane domain, and an engulfment signaling domain comprising a primary engulfment signaling domain comprising a TLR2 signaling domain and a secondary engulfment signaling domain comprising a TRAF2 signaling domain. CD4 T cells were transduced with a lentiviral vector comprising CER123 or CER126 nucleic acid and truncated EGFR (transduction marker) nucleic acid. Assays were performed using CER modified T cells purified by FACS using an EGFR specific antibody 7 days after activation using CD3 & CD28 microbeads. CER modified T cells and H1975 cells were co-cultured at effector:target cell ratio (E:T) of 1:1, 2:1, or 5:1. After 48 hours of co-culture in the presence of Osimeritinib (0, 250 nM, 500 nM, or 1000 nM), T cells were washed away, and the number of viable H1975 cells were quantified using a calorimetric MTT assay. Cell viability experiments were performed in triplicate and presented as % of control (FIG. 45A).

A549 ALK+ cells = assay: MTT viability and bright field microscopy of A549 ALK+ cells with CER T cells and ALK inhibitor; settings: for in vitro growth/viability of A549 ALK+ cells (MTT): Alectinib or Crizotinib 250 nM-10 μM, E:T 2:1 and 5:1
Source text: An […] translocation was introduced into A549 cells. […] CER104 has a polypeptide sequence set forth in SEQ ID NO:133 and comprises a Tim4 binding domain, Tim4 transmembrane domain, and an engulfment signaling domain comprising a primary engulfment signaling domain comprising a TLR8 signaling domain and a secondary engulfment signaling domain comprising a DAP12 signaling domain. CER122 has a polypeptide sequence set forth in SEQ ID NO:149 and comprises a Tim4 binding domain, Tim4 transmembrane domain, and an engulfment signaling domain comprising a primary engulfment signaling domain comprising a TLR2 signaling domain and a secondary engulfment signaling domain comprising a DAP12 signaling domain. Effector:target (E:T) cell ratio for co-culture was 2:1 or 5:1. […] Cell viability experiments were performed in triplicates and presented as % of control. Best-fit curves were generated from raw data using linear regression models.
CER21−, CER108−, CER104−, and CER129-transduced CD4+ T cells were tested for their ability to kill A549 ALK+ cells in the presence of ALK inhibitor. CD4+ T cells were transduced with a lentiviral vector comprising a CER21, CER108, CER104, CER129, CER27, CER120, CER122, CER123, CER124, or CER126 nucleic acid. […] After 48 hours of co-culture, T cells were washed away and the number of viable A549 ALK+ cells was quantified using a calorimetric MTT assay (FIGS. 67A-B). Cell viability experiments were performed in triplicates and presented as % of control. Bright field microscopy images were also obtained from A549 ALK+co-culture experiments. […] Arrow indicates cluster of dead A549 ALK+ cells surrounded by phagocytic CER104+ T cells. […]

B1: CER123: Tim4 binding and transmembrane domains, TLR2 primary and TRAF6 secondary signaling domains; SEQ ID NO:150 (protein)
chain: MSKGLLLLWLVTELWWLYLTPAASEDTIIGFLGQPVTLPCHYLSWSQSRNSMCWGKGSCPNSKCNAELLRTDGTRIISRKSTKYTLLGKVQFGEVSLTISNTNRGDSGVYCCRIEVPGWFNDVKKNVRLELRRATTTKKPTTTTRPTTTPYVTTTTPELLPTTVMTTSVLPTTTPPQTLATTAFSTAVTTCPSTTPGSFSQETTKGSAFTTESETLPASNHSQRSMMTISTDIAVLRPTGSNPGILPSTSQLTTQKTTLTTSESLQKTTKSHQINSRQTILIIACCVGFVLMVLLFLAFLHRFHGLWYMKMMWAWLQAKRKPRKAPSRNICYDAFVSYSERDAYWVENLMVQELENFNPPFKLCLHKRDFIPGKWIIDNIIDSIEKSHKTVFVLSENFVKSEWCKYELDFSHFRLFDENNDAAILILLEPIEKKAIPQRFCKLRKIMNTKTYLEWPMDEAQREGFWVNLRAAIKSMSLLNCENSCGSSQSESDCCVAMASSCSAVTKDDSVGGTASTGNLSSSFMEEIQGYDVEFDPPLESKYECPICLMALREAVQTPCGHRFCKACIIKSIRDAGHKCPVDNEILLENQLFPDNFAKREILSLMVKCPNEGCLHKMELRHLEDHQAHCEFALMDCPQCQRPFQKFHINIHILKDCPRRQVSCDNCAASMAFEDKEIHDQNCPLANVICEYCNTILIREQMPNHYDLDCPTAPIPCTFSTFGCHEKMQRNHLARHLQENTQSHMRMLA
modifications: CER123 protein
phagocytic elimination of ALK+A549 cells (ALK+A549 cells; 2.5 μM Alectinib, 12 hours): phagocytic elimination of ALK+A549 cells
growth/viability of H1975 cells (MTT) [1]: synergistically suppressed

B2: CER122: Tim4 binding and transmembrane domains, TLR2 primary and DAP12 secondary signaling domains; SEQ ID NO:149 (protein)
chain: MSKGLLLLWLVTELWWLYLTPAASEDTIIGFLGQPVTLPCHYLSWSQSRNSMCWGKGSCPNSKCNAELLRTDGTRIISRKSTKYTLLGKVQFGEVSLTISNTNRGDSGVYCCRIEVPGWFNDVKKNVRLELRRATTTKKPTTTTRPTTTPYVTTTTPELLPTTVMTTSVLPTTTPPQTLATTAFSTAVTTCPSTTPGSFSQETTKGSAFTTESETLPASNHSQRSMMTISTDIAVLRPTGSNPGILPSTSQLTTQKTTLTTSESLQKTTKSHQINSRQTILIIACCVGFVLMVLLFLAFLHRFHGLWYMKMMWAWLQAKRKPRKAPSRNICYDAFVSYSERDAYWVENLMVQELENFNPPFKLCLHKRDFIPGKWIIDNIIDSIEKSHKTVFVLSENFVKSEWCKYELDFSHFRLFDENNDAAILILLEPIEKKAIPQRFCKLRKIMNTKTYLEWPMDEAQREGFWVNLRAAIKSYFLGRLVPRGRGAAEAATRKQRITETESPYQELQGQRSDVYSDLNTQRPYYK
modifications: CER122 protein
in vitro growth/viability of A549 ALK+ cells (MTT) (A549 ALK+ cells; 48 hours): synergistically suppress in vitro growth of NSCLC cells harboring ALK rearrangements
in vitro growth/viability of A549 ALK+ cells (MTT) (A549 ALK+ cells; 72 hours): synergistically suppress in vitro growth of NSCLC cells harboring ALK rearrangements
phagocytic uptake of A549 ALK+ cells, time course (ALK+A549 cells; CD4+ T cells, 4, 8, and 16 hours co-culture): phagocytic events by CER122-transduced T cells

B3: CER104: Tim4 binding and transmembrane domains, TLR8 primary and DAP12 secondary signaling domains; SEQ ID NO:133 (protein)
chain: MSKGLLLLWLVTELWWLYLTPAASEDTIIGFLGQPVTLPCHYLSWSQSRNSMCWGKGSCPNSKCNAELLRTDGTRIISRKSTKYTLLGKVQFGEVSLTISNTNRGDSGVYCCRIEVPGWFNDVKKNVRLELRRATTTKKPTTTTRPTTTPYVTTTTPELLPTTVMTTSVLPTTTPPQTLATTAFSTAVTTCPSTTPGSFSQETTKGSAFTTESETLPASNHSQRSMMTISTDIAVLRPTGSNPGILPSTSQLTTQKTTLTTSESLQKTTKSHQINSRQTILIIACCVGFVLMVLLFLAFLHHLFYWDVWFIYNVCLAKVKGYRSLSTSQTFYDAYISYDTKDASVTDWVINELRYHLEESRDKNVLLCLEERDWDPGLAIIDNLMQSINQSKKTVFVLTKKYAKSWNFKTAFYLALQRLMDENMDVIIFILLEPVLQHSQYLRLRQRICKSSILQWPDNPKAEGLFWQTLRNVVLTENDSRYNNMYVDSIKQYYFLGRLVPRGRGAAEAATRKQRITETESPYQELQGQRSDVYSDLNTQRPYYK
modifications: CER104 protein
bright field microscopy of A549 ALK+ co-culture (A549 ALK+ cells; Alectinib 3.7 μM, 48 hours, vs mock-transduced T cells): cluster of dead A549 ALK+ cells surrounded by phagocytic CER104^+ T cells
in vitro growth/viability of A549 ALK+ cells (MTT) (A549 ALK+ cells; 48 hours): synergistically suppress in vitro growth of NSCLC cells harboring ALK rearrangements
in vitro growth/viability of A549 ALK+ cells (MTT) (A549 ALK+ cells; 72 hours): synergistically suppress in vitro growth of NSCLC cells harboring ALK rearrangements
phagocytosis of A549 cells (ALK+A549 cells; 1 μM Alectinib, 12 hours): phagocytosed A549 cells
phagocytosis of A549 cells (ALK+A549 cells; 1 μM Crizotinib, 12 hours): phagocytosed A549 cells
